Assay results from US11814435B2, “Therapeutic antibodies and their uses” (PFIZER INC., priority 2015, dated 2023).

T1: hBCMA (human BCMA) (Homo sapiens, UniProt Q02223)
T1 sequence (Q02223 1-184): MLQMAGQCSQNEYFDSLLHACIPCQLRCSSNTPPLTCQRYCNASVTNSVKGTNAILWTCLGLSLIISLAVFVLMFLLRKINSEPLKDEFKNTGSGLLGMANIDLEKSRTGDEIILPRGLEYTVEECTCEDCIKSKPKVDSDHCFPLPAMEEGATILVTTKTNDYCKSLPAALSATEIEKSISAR


Tests used:
hBCMA (human BCMA) = target: T1, hBCMA (human BCMA); experiment: Kinetics and affinity of hBCMA/human IgG interactions by SPR (Bio-Rad Proteon XPR36); type: binding; details: human BCMA, 37° C.
How it was run: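 First, antibodies are immobilized by amine coupling onto a GLC sensor chip at 25° C. Next, hBCMA is titrated from 0.08 to 50 nM in one cycle, each injection lasting two minutes, in BSA-supplemented HBS-T+ at 37° C. or 25° C. Finally, dissociation runs two hours before kinetic-titration fitting.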

Cyno BCMA = experiment: Kinetics and affinity of cyno BCMA/human IgG interactions by SPR (Bio-Rad Proteon XPR36); type: binding, cynomolgus; details: 37° C.

ka Human (hBCMA (human BCMA)) [M⁻¹ s⁻¹] | kd Human (hBCMA (human BCMA)) [s⁻¹] | kd Cyno (Cyno BCMA) [s⁻¹] | Molecule | ka Cyno (Cyno BCMA) [M⁻¹ s⁻¹]
1.04e+07 | 0.000319 | 0.000346 | COMBO_Rd4_0.6 nM_C09: anti-BCMA antibody (antibody, V domains shown) VH: EVQLLESGGGLVQPGGSLRLSCAASGFTFSSYPMSWVRQAPGKGLEWVSAIGGSGGSLPYADSVKGRFTISRDNSKNTLYLQMNSLRAEDTAVYYCARYWPMDIWGQGTLVTVSS VL: EIVLTQSPGTLSLSPGERATLSCRASQSVSSTYLAWYQQKPGQAPRLLMYDASIRATGIPDRFSGSGSGTDFTLTISRLEPEDFAVYYCQQYQEWPLTFGQGTKVEIK | 3.77e+06
6.96e+06 | 0.0387 | 0.0164 | P5A2_VHVL: anti-BCMA antibody (antibody, V domains shown) VH: EVQLLESGGGLVQPGGSLRLSCAASGFTFSSYAMNWVRQAPGKGLEWVSAISDSGGSTYYADSVKGRFTISRDNSKNTLYLQMNSLRAEDTAVYYCARYWPMDIWGQGTLVTVSS VL: EIVLTQSPGTLSLSPGERATLSCRASQSVSSSYLAWYQQKPGQAPRLLMYDASIRATGIPDRFSGSGSGTDFTLTISRLEPEDFAVYYCQQYGSWPLTFGQGTKVEIK | 1.61e+06
1.05e+07 | 0.000371 | 0.000934 | COMBO_Rd4_6 nM_C07: anti-BCMA antibody (antibody, V domains shown) VH: EVQLLESGGGLVQPGGSLRLSCAASGFTFSSYPMSWVRQAPGKGLEWVSAIGGSGGSLPYADSVKGRFTISRDNSKNTLYLQMNSLRAEDTAVYYCARYWPMADWGQGTLVTVSS VL: EIVLTQSPGTLSLSPGERATLSCRASQPISSSYLAWYQQKPGQAPRLLMYDASIRATGIPDRFSGSGSGTDFTLTISRLEPEDFAVYYCQQYQGWPLTFGQGTKVEIK | 3.94e+06
1.38e+07 | 0.00027 | 0.000486 | COMBO_Rd4_6 nM_C12: anti-BCMA antibody (antibody, V domains shown) VH: EVQLLESGGGLVQPGGSLRLSCAASGFTFSSYPMSWVRQAPGKGLEWVSAALGSGGSTYYADSVKGRFTISRDNSKNTLYLQMNSLRAEDTAVYYCARYWPMDSWGQGTLVTVS VL: EIVLTQSPGTLSLSPGERATLSCRASQSVSASYLAWYQQKPGQAPRLLMYDASIRATGIPDRFSGSGSGTDFTLTISRLEPEDFAVYYCQQYMSWPLTFGQGTKVEIK | 3.29e+06
4.35e+06 | 0.000282 | 0.000808 | COMBO_Rd4_0.6 nM_C30: anti-BCMA antibody (antibody, V domains shown) VH: EVQLLESGGGLVQPGGSLRLSCAASGFTFSSYPMSWVRQAPGKGLEWVSAIGGSGGSTYYADSVKGRFTISRDNSKNTLYLQMNSLRAEDTAVYYCARYWPMDSWGQGTLVTVSS VL: EIVLTQSPGTLSLSPGERATLSCRASQSVSYMYLAWYQQKPGQAPRLLIYDASIRATGIPDRFSGSGSGTDFTLTISRLEPEDFAVYYCQQYKSWPLTFGQGTKVEIK | 1.68e+06
8.66e+06 | 0.000328 | 0.000645 | COMBO_Rd4_0.6 nM_C14: anti-BCMA antibody (antibody, V domains shown) VH: EVQLLESGGGLVQPGGSLRLSCAASGFTFSSYPMSWVRQAPGKGLEWVSAIGGSGGSLPYADSVKGRFTISRDNSKNTLYLQMNSLRAEDTAVYYCARYWPMDIWGQGTLVTVSS VL: EIVLTQSPGTLSLSPGERATLSCRASQSVSALYLAWYQQKPGQAPRLLMYDASIRATGIPDRFSGSGSGTDFTLTISRLEPEDFAVYYCQQYYGWPLTFGQGTKVEIK | 3.48e+06
